According to patent US20160311912A1 (RINAT NEUROSCIENCE, published 2016):
Substitutions are numbered along the chain they refer to.

B1: anti-glucagon receptor antagonist antibody mAb5 (antibody, V domains shown)
VH: QVQLVQSGAEVKKPGASVKVSCKASGYTFTDFSVHWVRQAPGQGLEWMGWINTETDETSYADDFKGRVTMTRDTSTSTVYMELSSLRSEDTAVYYCVKSRYWSYGPPDYWGQGTTVTVSS
VL: DIQMTQSPSSLSASVGDRVTITCQASQNIRTAVVWYQQKPGKAPKLLIYLASNRHSGVPSRFSGSGSGTDFTFTISSLQPEDIATYYCLQHWTYPFTFGGGTKVEIKR
notes: Fluorescence-labeled in the yeast display experiment
B2: H3-C10 (antibody, V domains shown)
VH: B1 VH with R100L
VL: DIQMTQSPSSLSASVGDRVTITCRASQNIRTAVVWYQQKPGKAPKLLIYLATNRHSGVPSRFSGSGSGTDFTFTISSLQPEDIATYYCLQHWTYPFSFGGGTKLEIK
B3: H2-E7 (antibody, V domains shown)
VH: B1 VH with I51Y, T53L, Y101G
VL: B2 VL
B4: H2-E7-H3-2 (antibody, V domains shown)
VH: B1 VH with I51Y, T53L, R100L, Y101F
VL: B2 VL
B5: H2-A11-H3-2 (antibody, V domains shown)
VH: B1 VH with T55Y, E57F, R100L, Y101F
VL: B2 VL
B6: H2-C8-H3-2 (antibody, V domains shown)
VH: B1 VH with D56R, E57G, R100L, Y101F
VL: B2 VL
B7: H2-F11 (antibody, V domains shown)
VH: B1 VH with T55F, E57Y, Y101G
VL: B2 VL
B8: H2-A11-H3-4 (antibody, V domains shown)
VH: B1 VH with T55Y, E57F, Y101W
VL: B2 VL
B9: H2-A11-H3-3 (antibody, V domains shown)
VH: B1 VH with T55Y, E57F, R100L
VL: B2 VL
B10: H2-A8 (antibody, V domains shown)
VH: B1 VH with T55F, E57F, Y101G
VL: B2 VL
B11: H3-F5 (antibody, V domains shown)
VH: B1 VH with R100L, Y101F
VL: B2 VL
B12: H2-A11-H3-1 (antibody, V domains shown)
VH: B1 VH with T55Y, E57F, K98E, R100L
VL: B2 VL
B13: H2-E7-H3-3 (antibody, V domains shown)
VH: B1 VH with I51Y, T53L, R100L
VL: B2 VL
B14: H3-H9 (antibody, V domains shown)
VH: B1 VH with Y101W
VL: B2 VL
B15: H2-F10 (antibody, V domains shown)
VH: B1 VH with T53L, T55F, Y101G
VL: B2 VL
B16: H2-E7-H3-4 (antibody, V domains shown)
VH: B1 VH with I51Y, T53L, Y101W
VL: B2 VL
B17: FF2-H2WT H3RY (antibody, V domains shown)
VH: B1 VH
VL: B2 VL with R24Q, T52S, S97T, L104V
B18: H2-C8-H3-3 (antibody, V domains shown)
VH: B1 VH with D56R, E57G, R100L
VL: B2 VL
B19: FF2-H3RY (antibody, V domains shown)
VH: B1 VH with T55Y, E57F
VL: B2 VL with R24Q, T52S, S97T, L104V
B20: mAb2 (antibody, V domains shown)
VH: B1 VH with Y101G
VL: B2 VL
B21: H2-C8 (antibody, V domains shown)
VH: B1 VH with D56R, E57G, Y101G
VL: B2 VL
B22: FF2-H2WT (antibody, V domains shown)
VH: B1 VH with R100L
VL: B2 VL with R24Q, T52S, S97T, L104V
B23: H2-A11 (antibody, V domains shown)
VH: B1 VH with T55Y, E57F, Y101G
VL: B2 VL
B24: H2-C8-H3-4 (antibody, V domains shown)
VH: B1 VH with D56R, E57G, Y101W
VL: B2 VL
B25: FF2-H2RG (antibody, V domains shown)
VH: B1 VH with D56R, E57G, R100L
VL: B2 VL with R24Q, T52S, S97T, L104V
B26: FF2 (antibody, V domains shown)
VH: B1 VH with T55Y, E57F, R100L
VL: B2 VL with R24Q, T52S, S97T, L104V
B27: mAb4 (antibody, V domains shown)
VH: QVQLVQSGAEVKKPGASVKVSCKASGYTFTSSLIHWVRQAPGQGLEWMGYINPYNDGTKYNEKFKGRVTMTRDTSTSTVYMELSSLRSEDTAVYYCARMDYGNLWYFDVWGQGTLVTVSS
VL: EIVLTQSPATLSLSPGERATLSCRASENIYYSLAWYQQKPGQAPRLLIYNANSLEDGIPARFSGSGSGTDFTLTISSLEPEDFAVYYCKQAYDVPFTFGGGTKVEIK
B28: mAb1 (antibody, V domains shown)
VH: QIQLVQSGPELKKPGETVKISCKASGYTFTDFSIHWVKQAPGKGLKWMGWINTETDESTYADDFKGRFAFSLETSASTAYLQINNLKNEDTATYFCVKSRGWTYGPPDYWGQGTTLTVSS
VL: DIVMTQSQKFMSASVGDRVSITCKASQNVRTAVVWFQQKPGQSPNTLIYLASNRHSEVPDRFTGSGSGTDFTLTISNVQSEDLADYFCLQHWTYPFTFASGTKLEIK

Columns and labels:
[1] = target: human glucagon receptor on stably transfected CHO cells (human, UniProt P47871 26-477); experiment: cell-based or functional assay
[2] = target: T1, glucagon receptor (target of the KD / T½ of Tables 1A, 1B and 2B) (Homo sapiens (Human), UniProt P47871 26-136); experiment: not stated (column of Table 1A)
T1 construct: not shown: Human Fc carrier (and any linker) of the ECD-Fc fusion

[3] = target: T1, glucagon receptor (target of the KD / …); experiment: not stated; 25° C.
[4] = target: T1, glucagon receptor (target of the KD / …); experiment: not stated; 37° C.
[5] = target: T1, glucagon receptor (target of the KD / …); experiment: not stated; 37° C. (entry printed a second time)
[6] = target: T1, glucagon receptor (target of the KD / …); experiment: not stated (column of Table 1B)

T1 sequence (P47871 26-136 limits assumed): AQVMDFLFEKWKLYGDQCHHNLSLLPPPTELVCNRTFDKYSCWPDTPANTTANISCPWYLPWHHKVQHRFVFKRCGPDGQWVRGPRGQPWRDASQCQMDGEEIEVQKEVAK
Sequence of human glucagon receptor on stably transfected CHO cells (P47871 26-477 limits assumed): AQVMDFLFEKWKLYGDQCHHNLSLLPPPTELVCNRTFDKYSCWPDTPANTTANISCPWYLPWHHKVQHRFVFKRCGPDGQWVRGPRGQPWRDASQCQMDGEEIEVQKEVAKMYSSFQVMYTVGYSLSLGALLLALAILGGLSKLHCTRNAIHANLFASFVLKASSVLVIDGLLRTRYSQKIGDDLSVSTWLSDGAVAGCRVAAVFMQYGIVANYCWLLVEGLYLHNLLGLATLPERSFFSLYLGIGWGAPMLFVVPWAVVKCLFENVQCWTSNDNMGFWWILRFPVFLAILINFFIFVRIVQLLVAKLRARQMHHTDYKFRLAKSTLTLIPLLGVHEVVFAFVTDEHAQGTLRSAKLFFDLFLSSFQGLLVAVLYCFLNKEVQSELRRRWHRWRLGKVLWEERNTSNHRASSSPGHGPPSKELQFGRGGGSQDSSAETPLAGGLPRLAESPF

Row | Binder | T½ [3] | T½ [4] | further results
1 | B1 |  |  | IC50 (read off the curve) [1]: ~1 µg/mL; Kd [2]: 0.224 nM
2 | B2 | 3.68 min |  | 
3 | B3 | 13.7 min |  | 
4 | B4 |  | 7.94 h | 
5 | B5 |  | 8.53 h | 
6 | B6 |  | 6.89 h | T½ [5]: 6.89 h
7 | B7 | 17.8 min |  | 
8 | B8 |  | 6.36 h | T½ [5]: 6.36 h
9 | B9 |  | 17.2 h | 
10 | B10 | 20.8 min |  | 
11 | B11 | 2.4 min |  | 
12 | B12 |  | 4.19 h | 
13 | B13 |  | 14.9 h | 
14 | B14 | 2.26 min |  | 
15 | B15 | 21.6 min |  | 
16 | B16 |  | 7.37 h | 
17 | B17 |  |  | Kd [6]: 0.224 nM
18 | B18 |  | 12.4 h | T½ [5]: 12.4 h
19 | B19 |  |  | Kd [6]: < 0.125 nM
20 | B20 |  |  | T½ [2]: 5.75 min
21 | B21 | 20.6 min |  | 
22 | B22 |  |  | Kd [6]: < 0.2 nM
23 | B23 | 26.3 min |  | 
24 | B24 |  | 5.3 h | 
25 | B25 |  |  | Kd [6]: 0.187 nM
26 | B26 |  |  | Kd [6]: 0.171 nM
27 | B27 |  |  | Kd [2]: 10.2 nM
28 | B28 |  |  | Kd [2]: 0.64 nM
